Data as given in the DeepSol protein solubility set.

Experiment: soluble on expression in E. coli; label from the status in PepcDB or PDB records

Row | Sequence | soluble on expression in E. coli
1 | ETDKKGENAPDTKRIKETLEKFSLENMRYVGILKSGQKVSGFIEAEGYVYTVGVGNYLGQNYGRIESITDDSIVLNELIEDSTGNWVSRKAELLLNSSDKNTEQAAAPAAEQN | soluble
2 | ETGGERQLSPEKSEIWGPGLKADVVLPARYFYIQAVDTSGNKFTSSPGEKVFQVKVSAPEEQFTRVGVQVLDRKDGSFIVRYRMYASYKNLKVEIKFQGQHVAKSPYILKG | soluble
3 | ETPAVQVSTNRQAIIINEQTQFKVDAALKNAGIQTDGMFVVDNSLKVRFKDTETQLKARDVIENTLGEGYITALNLLADSPEWMAKIKANPMFLGLDLRGGVHFTMQVDMKAAMQKTFERYSGDIRRELRREKIRSGTVRQAGNSLTVPLQDAGDVQKALPQLRKLFPEATLNSDGSNIVLTLSEEAVNKVCSDAVKQNITTLHNRVNELGVAEPVIQQSGADRIVVQLPGVQDTAKAKDIIGRTATLELRMVEDDPAKLREALEGNVPSGYELLSSGGDRPEILLISKQVELTGDNINDAQPSFDQMGAPAVSLSLDSAGGSIFGELTAANVGKRMAMVLIDQGKSEVVTAPVIRTAITGGRVEISGSMTTAEANDTSLLLRAGSLAAPMQIVEERTIGPSLGKENIEK | not soluble
4 | ETTSSIGEKVWDDKDNQDGKRPEKVSVNLLANGEKVKTLDVTSETNWKYEFKDLPKYDEGKKIEYTVTEDHVKDYTTDINGTTITNKYTPGETSATVTKNWDDNNNQDGKRPTEIKVELYQDGKATGKTAILNESNNWTHTWTGLDEKAKGQQVKYTVEELTKVKGYTTHVDNNDMGNLITTNKYTPETTSSIGEKVWDDKDNQDGKRPEKVSVNLLANGEKVKTLDVTSETNWKYEFKDLPKYDEGKKIEYTVTEDHVKDYTTDINGTTITNKYTPGETSATVTKNWDDNNNQDGKRPTEIKVELYQDGKATGKTAILNESNNWTHTWTGLDEKAKGQQVKYTVEELTKVKGYTTHVDNNDMGNLITTNKYT | soluble
5 | EVDPAKCVLQGEDLHRAREKQTASFTLLCKDAAGEIMGRGGDNVQVAVVPKDKKDSPVRTMVQDNKDGTYYISYTPKEPGVYTVWVCIKEQHVQGSPFTVTVRRKH | soluble
6 | EVQLVESGGGLVQPGGSLRLSCAASGFTFSDYGIAWVRQAPGKGLEWVAFISDLAYTIYYADTVTGRFTISRDNSKNTLYLQMNSLRAEDTAVYYCARDNWDAMDYWGQGTLVTVSSASTKGPSVFPLAPSSKSTSGGTAALGCLVKDYFPEPVTVSWNSGALTSGVHTFPAVLQSSGLYSLSSVVTVPSSSLGTQTYICNVNHKPSNTKVDKKVEPKSCDKTHTC | soluble
7 | FDKLGNSAAIQEMNREVEAAAKRTSPVFLTGEAGSPFETVARYFHKNGTPWVSPARVEYLIDMPMELLQKAEGGVLYVGDIAQYSRNIQTGITFIIGKAERCRVRVIASCSYAAGSDGISCEEKLAGLFSESVVRIPPLS | soluble
8 | FEEHLKKKPLRERLLEIPELRTEGLRDCQVMAISNLEKSFKDYRPRALIQMATGSGKTYTAITFIYRLLKFADARKVLFLVDTKNLGEQAEQEFMAYVPNDDNRKFTELYNVQRLRSSYISSDSQVCISTIQRLYSILKGEDLDEKTEEENPAERGWQLKEPLPVVYNEKVPIEEFDFIVIDECHRSIY | not soluble
9 | FEKMKKEVEEILYNLKKEGGKYHCILAFSGGKDSVLALKLLKEKFKLNPLCVMVDNKYMAKEAIENALNVTKHYQVDLMILNRDYTDLFEDAIKRGESPCRRCSRLILREVWRVTKLLGLKYIITGHELP | not soluble
10 | FFFSGGVPLDASLFEHKKLDPTQVRQVLQLVLWKLESLRQWEKERITGCIQAVAEHLQLKLRDVMPLMFPAITGHASSVSVLDAMEILGADLSRYRLRQALELLGGASKKETKEWEKIRDAIPG | not soluble
11 | FGLETVSENELAHSEEELRIILSESYKSGEINQSEFKYVNKIFEFDDRLAKEIMIPRTEIVSLPHDIKISEMMDIIQIEKYTRYPVEEGDKDNIIGVINIKEVLTACISGEVSVDSTISQFVNPIIHVIESAPIQDLLVKMQKERVHMAILSDEYGGTAGLVTVEDIIEEIVGEIR | soluble
12 | FHHYKILDTNILIDGRIYDLAKTGFLEGTLLVPNFVLYELQYIADSSDSVKRVRGRRGLDILNKLQNEHIMPIEMYEGDFEDIPEVDSKLIALAKQNGGVIVTNDYNLNKVIQFQNVQVLNINSLANALKPRVI | not soluble
13 | FKIETTPESRYLAQIGDSVSLTCSTTGCESPFFSWRTQIDSPLNGKVTNEGTTSTLTMNPVSFGNEHSYLCTATCESRKLEKGIQVEIYSFPKDPEIHLSGPLEAGKPITVKCSVADVYPFDRLEIDLLKGDHLMKSQEFLEDADRKSLETKSLEVTFTPVIEDIGKVLVCRAKLHIDEMDSVPTVRQAVKELQVYISPKNT | soluble
14 | FLYSNTSYRTLYLAAILYKAKADIRIVHDHLNHTSLADLKFKKYVYNHFKTQGQVIYFICTKKIQKRLRMTADQCARVNLLSNIAD | soluble
15 | FMAKLTSAVPVLTARDVAGAVEFWTDRLGFSRDFVEDDFAGVVRDDVTLFISAVQDQVVPDNTLAWVWVRGLDELYAEWSEVVSTNFRDASGPAMTEIGEQPWGREFALRDPAGNCVHFVAEEQD | soluble
16 | FPDILDNRIEKMSSCFKQAAEEYGYKAENFIIYPIKVNQMRPVVEEIISHGKKFNLGLEAGSKPELHAVIAVNTDSDSLIVCNGYKDESYIELALLAQKMGKRIFLVVEKMNELKLIAKMAKQLNVQPNIGIRIKLASSGSGKWEESGGDASKFGLTSSELLEALDFMESKGLKDCLKLIHFHIGSQVTKIRRIKTALREASQFYVQLHSMGFNVEFVDIGGGLGVDYDGTRSSNSEGSVNYSIQEYVNDSISTLVDVSDKNGIPHPNIITESGRALTAH | soluble
17 | FTQMVIRLHIYHLVSTVSPHNVNIDASIAARGLSGEGYRGHYFWDEIYIMPFFIQHLPEVARALLMFRYHRLDAAREYARDNGYHGAMYPWQTADDGREETPTIHYNPKSGAWDPDLSCRQRHVSIAVFYNAWRYVHDTGDTEFLNSYGAEMMFEIARFWASIATFSPDDGRYHIEGVMGPDEFHEELPGSGKPGLKDNSYTNIMTAWLLEKAIEISQRLDPAVMDGLMEKIGIGHDEFMKWRDISGKMNVLIDQNGILEQFDGYMGLKELDWEHYKLKYGNIHRMDRILKAENDSPDHYKVAKQADVLMTFYTLSPAEVCAILENLGYHVADPLRFVRDNYAFYEPRTSHGSTLSKVVHSIISSYLPNGHEMAWNWFIEALRSDIHDTQGGTTPEGLHCGVMAGTIDTVT | not soluble
18 | GAEKEDLVQEGILGLLKAIKFYDETKSSFSSFAFLCIRREMISAIRKANTQKHMVLNEALKTNAILEDSAYFDDEGHNINNYKSSESNPEEAYLLKEEIEEFKKFSENNFSKFEKEVLTYLIRGYSYREIATILSKNLKSIDNTIQRIRKKSEEWIKEEENIKR | soluble
19 | GAGTQTAQTQALDSDGIPTGGEWITMFDGKTLNGWRGYCRQDVPLGWVVEDGSITYKGSDNKADTGFGDLIYDKKFKNFVFEIEWKIDKAGNSGIFYTAQEIEGTPIYYSSPEYQLLDNENMPDAWEGCDGNRQAGAVYDMIMPDPQPVKPYGNWNKTRIVVYNQRVIHYMNDVKILEFQFGTPVWRALVDHSKFSKFSTSPEKCPEAYDLMLQCGKQPGYIGMQDHGYGVCFRNIRIKEL | soluble
20 | GAMAPERPLVGVNGLDVTSLRPFDLVIPFTIKKGEITGEVRMPSGKVAQPTITDNKDGTVTVRYAPSEAGLHEMDIRYDNMHIPGSPLQFYVDYVNCGHVTAYGPGLTHGVVNKPATFTVNTKDAGEGGLSLAIEGPSKAEISCTDNQDGTCSVSYLPVLPGDYSILVKYNEQHVPGSPFTARVTGDD | soluble
21 | GAMDGNMKEVTQLPEPQTASLAELQQMKLFLKLLKKQEKELKELERKGSKRREELLQKYSVLFLEPVYPRGLDSQVVELKERLEMELIHLGEEYHDGIRRRKEQHATEQTAKITELAREKQIAELKALKESSESNIKDIKKKLEAKRLDRIQVMMRSTSDKAAQERLKKEINNSHIQEVVQTIKLLTEKTARYQQKLEEKQAENLRAIQEKEGQLQQEAVAEYEEKLKTLTVEVQEMVKNYMKEVFPDGPE | soluble
22 | GAMDPEFQQSKVAPSSAASRPVLSSRSDQSQKNEVFLDVVERLSVLIASNGSLLKVDVQGEIRLKSFLPSGSEMRIGLTEEFSVGKSELRGYGPGIRVDEVSFHSSVNLDEFESHRILRLQPPQGELTVMRYQLSDDLPSPLPFRLFPSVQWDRGSGRLQVYLKLRCDLLSKSQALNVRLHLPLPRGVVSLSQELSSPEQKAELAEGALRWDLPRVQGGSQLSGLFQMDVPGPPGPPSHGLSTSASPLGLGPASLSFELPRHTCSGLQVRFLRLAFRPSGNANPHKWVRHLSHSDAYVIRI | soluble
23 | GAMEGIKVFLHERELWLKFHEVGTEMIITKAGRRMFPSYKVKVTGLNPKTKYILLMDIVPADDHRYKFADNKWSVTGKAEPAMPGRLYVHPDSPATGAHWMRQLVSFQKLKLTNNHLDPFGHIILNSMHKYQPRLHIVKADENNGFGSKNTAFCTHVFPETAFIAVTSYQNHKITQLKIENNPFAKGFRGSDDMELHRMSRMQ | soluble
24 | GAMGSGGGGEHQHGEEMMAAVPAPDAEGAAGFDEFPIGEDRDVGPLHVGGVYFQPVEMHPAPGAQPSKEEADCHIEADIHANEAGKDLGYGVGDFVPYLRVVAFLQKHGSEKVQKVMFAPMNAGDGPHYGANVKFEEGLGTYKVRFEIAAPSHDEYSLHIDEQTGVSGRFWSEPLVAEWDDFEWKGPQW | soluble
25 | GAMSSIFINREYLLPDYIPDELPHREDQIRKIASILAPLYREEKPNNIFIYGLTGTGKTAVVKFVLSKLHKKFLGKFKHVYINTRQIDTPYRVLADLLESLDVKVPFTGLSIAELYRRLVKAVRDYGSQVVIVLDEIDAFVKKYNDDILYKLSRINSEVNKSKISFIGITNDVKFVDLLDPRVKSSLSEEEIIFPPYNAEELEDILTKRAQMAFKPGVLPDNVIKLCAALAAREHGDARRALDLLRVSGEIAERMKDTKVKEEYVYMAKEEIERDRVRDIILTLPFHSKLVLMAVVSISSEENVVSTTGAVYETYLNICKKLGVEAVTQRRVSDIINELDMVGILTAKVVNRGRYGKTKEIGLAVDKNIIVRSLIESDSRFADLWS | soluble
26 | GAVETLQGKAATGELLEKSVNTIRFLAIDAVEKANSGHPGLPMGCAPMGHVLYDEVMRYNPKNPYWFNRDRFVLSAGHGCMLQYALLHLAGYDSVKEEDLKQFRQWGSRTPGHPENFETPGVEVTTGPLGQGIANAVGLALAEKHLAARFNKPDSEIVDHYTYVILGDGCQMEGIANEACSLAGHWGLGKLIAFYDDNHISIDGDTEIAFTEDVSTRFEALGWHTIWVKNGNTGYDDIRAAIKEAKAVTDKPTLIKVTTTIGFGSPNKANSYSVHGSALGAKEVEATRQNLGWPYDTFFVPEDVKSHWSRHTPEGAALEADWNAKFAEYEKKYADDAATLKSIITGELPTGWVDALPKYTPESPGDATRNLSQQCLNALANVVPGLIGGSADLASSNMTLLKMFGDFQKDTAEERNVRFGVREHGMGAICNGIALHSPGFVPYCATFFVFTDYMRGAMRISALSEAGVIYVMTHDSIGLGEDGPTHQPIEHLVSFRAMPNILMLRPADGNETAGAYKVAVLNRKRPSILALSRQKLPHLPGTSIEGVEKGGYTISDNSTGNKPDLIVMGTGSELEIAAKAADELRKEGKTVRVVSFVSWELFDEQSDEYKESVLPAAVTARISIEAGSTLGWQKYVGAQGKAIGIDKFGASAPAGTIYKEYGITVESIIAAAKSF | soluble
